What was measured:
[1] = target: T1, murine MU-1 Ig fusion protein (murine, UniProt Q9JHX3 20-236); experiment: Biacore, MU-1 Ig fusion immobilized on chip
T1 construct: It includes the predicted leader 1-19, the transmembrane domain 237-253 and the cytoplasmic domain; Immobilized on a Biacore chip; not shown: Ig part of the fusion

[2] = target: T2, human MU-1 Ig fusion protein (human, UniProt Q9HBE5 20-235); experiment: Biacore, MU-1 Ig fusion immobilized on chip
T2 construct: A soluble fusion would most likely hold only the extracellular part; Immobilized on a Biacore chip; not shown: Ig part of the fusion
T2 sequence (Q9HBE5 20-235): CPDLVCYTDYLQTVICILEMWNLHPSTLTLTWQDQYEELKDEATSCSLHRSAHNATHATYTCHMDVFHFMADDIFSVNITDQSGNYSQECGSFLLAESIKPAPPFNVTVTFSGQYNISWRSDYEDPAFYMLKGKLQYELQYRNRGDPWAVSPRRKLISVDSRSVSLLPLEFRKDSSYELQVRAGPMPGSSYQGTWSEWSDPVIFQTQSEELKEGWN

| binding result [1] | binding result [2] | Binder |
| --- | --- | --- |
| no binding | no binding | mIL-7 (ligand, mouse, UniProt P10168 26-154, looked up) ECHIKDKEGKAYESVLMISIDELDKMTGTDSNCPNNEPNFFRKHVCDDTKEAAFLNRAARKLKQFLKMNISEEFNVHLLTVSQGTQTLVNCTSKEEKNVKEQKKNDACFLKRLLREIKTCWNKILKGSI |
| no binding | no binding | mIL-2 (ligand, mouse, UniProt P04351 21-169, looked up) APTSSSTSSSTAEAQQQQQQQQQQQQHLEQLLMDLQELLSRMENYRNLKLPRMLTFKFYLPKQATELKDLQCLEDELGPLRHVLDLTQSKSFQLEDAENFISNIRVTVVKLKGSDNTFECQFDDESATVVDFLRRWIAFCQSIISTSPQ |

From patent EP1787997A1 (Genetics Institute, LLC, dated 2007)
